According to PMC9723649:

Legend:
[1] = substrate: Nc1ncnc2c1ncn2[C@@H]1O[C@H](COP(=O)(O)OP(=O)(O)OP(=O)(O)O)[C@@H](O)[C@H]1O; test: purified protein
[2] = substrate: N[C@@H](CO)C(=O)O; test: purified protein

B1: SARS2 (human mitochondrial seryl-tRNA synthetase, mature form) (Homo sapiens) (protein)
chain: TTEKRNRNLLYEYAREGYSALPQLDIERFCACPEEAAHALELRKGELRSADLPAIISTWQELRQLQEQIRSLEEEKAAVTEAVRALLANQDSGEVQQDPKYQGLRARGREIRKELVHLYPREAQLEEQFYLQALKLPNQTHPDVPVGDESQARVLHMVGDKPVFSFQPRGHLEIGEKLDIIRQKRLSHVSGHRSYYLRGAGALLQHGLVNFTFNKLLRRGFTPMTVPDLLRGAVFEGCGMTPNANPSQIYNIDPARFKDLNLAGTAEVGLAGYFMDHTVAFRDLPVRMVCSSTCYRAETNTGQEPRGLYRVHHFTKVEMFGVTGPGLEQSSQLLEEFLSLQMEILTELGLHFRVLDMPTQELGLPAYRKFDIEAWMPGRGRFGEVTSASNCTDFQSRRLHIMFQTEAGELQFAHTVNATACAVPRLLIALLESNQQKDGSVLVPPALQSYLGTDRITAPTHVPLQYIGPNQPRKPGLPGQPAVS
- Km [1]: 112.83 ± 10.54 µM
- Km [2]: 2400 ± 40 µM
